# B1: human IL-12 (ligand)
# chain 1: IWELKKDVYVVELDWYPDAPGEMVVLTCDTPEEDGITWTLDQSSEVLGSGKTLTIQVKEFGDAGQYTCHKGGEVLSHSLLLLHKKEDGIWSTDILKDQKEPKNKTFLRCEAKNYSGRFTCWWLTTISTDLTFSVKSSRGSSDPQGVTCGAATLSAERVRGDNKEYEYSVECQEDSACPAAEESLPIEVMVDAVHKLKYENYTSSFFIRDIIKPDPPKNLQLKPLKNSRQVEVSWEYPDTWSTPHSYFSLTFCVQVQGKSKREKKDRVFTDKTSATVICRKNASISVRAQDRYYSSSWSEWASVPCS
# chain 2: RNLPVATPDPGMFPCLHHSQNLLRAVSNMLQKARQTLEFYPCTSEEIDHEDITKDKTSTVEACLPLELTKNESCLNSRETSFITNGSCLASRKTSFMMALCLSSIYEDLKMYQVEFKTMNAKLLMDPKRQIFLDQNMLAVIDELMQALNFNSETVPQKSSLEEPDFYKTKIKLCILLHAFRIRAVTIDRVMSYLNAS
# notes: Recombinant (Peprotech); FLAG-tagged IL-12 in the flow cytometry assays, biotinylated in the IL-12Rβ2 assay; also called hIL-12
# B2: human IL-23 (ligand)
# chain 1: IWELKKDVYVVELDWYPDAPGEMVVLTCDTPEEDGITWTLDQSSEVLGSGKTLTIQVKEFGDAGQYTCHKGGEVLSHSLLLLHKKEDGIWSTDILKDQKEPKNKTFLRCEAKNYSGRFTCWWLTTISTDLTFSVKSSRGSSDPQGVTCGAATLSAERVRGDNKEYEYSVECQEDSACPAAEESLPIEVMVDAVHKLKYENYTSSFFIRDIIKPDPPKNLQLKPLKNSRQVEVSWEYPDTWSTPHSYFSLTFCVQVQGKSKREKKDRVFTDKTSATVICRKNASISVRAQDRYYSSSWSEWASVPCS
# chain 2: RAVPGGSSPAWTQCQQLSQKLCTLAWSAHPLVGHMDLREEGDEETTNDVPHIQCGDGCDPQGLRDNSQFCLQRIHQGLIFYEKLLGSDIFTGEPSLLPDSPVGQLHASLLGLSQLLQPEGHHWETQQIPSLSPSQPWQRLLLRFKILRSLQAFVAVAARVFAHGAATLSP
# notes: Recombinant (Ebioscience); HIS-tagged in flow cytometry, biotinylated in some assays; also called hIL-23; rhIL-23
# Experiments:
# [1] = target: T1, IL-12Rβ1 on stably transfected Jurkat cells (human, UniProt P42701 24-662); experiment: flow cytometry; binding blocked by Antibody 202.1
# T1 construct: whole, on cells; Cell line negative for IL-12Rβ2 and IL-23R; also called IL-12Rβ1 Jurkat cell line
# Procedure, shortened: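 Jurkat cells stably transfected with IL-12Rβ1 were used. FLAG- or HIS-tagged cytokine at 250 ng/ml was preincubated with antibody (10 to 0.01 μg/ml, half-log dilutions) for one hour at 37° C, then cells at 10⁶/ml were added for a further hour. Cells were washed in PBS/10% FBS. Cell-bound cytokine was detected with phycoerythrin anti-HIS or FITC anti-FLAG on a Beckman-Coulter Quanta, and blocking of receptor binding was the read-out.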
# human IL-23 [2] = target: B2; experiment: SPR screen, crude scFv captured via FLAG
# Protocol: Approximately 6500 individual scFvs recovered from the ribosome display reactions were expressed and screened for binding against IL-23 using a high-throughout SPR assay. The variants were ranked according to the kd and the best variants were sequenced at the nucleic acid level.
# High-throughput SPR screening was conducted using a BIAcore A100 biosensor (GE Healthcare). Approximately 10 000 RU of the proprietary FLAG-specific capture molecule was immobilized on a CM5 Series S Sensor chip, using standard amine coupling chemistry on Spots 1 & 5 (outer spots) and 3,000RU to Spots 2 & 4 (inner spots) in each of the four flow cells of the BIAcore A100 Biosensor. The running buffer used was HBS-EP+ (BIAcore) and all interactions measured at 25° C. Crude periplasmic preparations of FLAG-tagged scFvs (prepared as described in the previous paragraph), were diluted two-fold in running buffer before capturing at a flow rate of 5u1/min for 60 sec. Approx. 100RU (on outer spots) and 50RU (on inner spots) of tagged scFv was captured. Following a 2 min stabilization period, IL-23 was passed over all spots of all four flow cells simultaneously at a flow rate of 30u1/min for 120 sec and dissociation monitored for 200 sec. Generated sensorgrams were referenced against the unmodified spot 3 of each flow cell, and fitted using a 1:1 Langmuir equation with R1 set to local to account for varying ligand densities to generate the kₐ, kd and KD values.
# human IL-12 [3] = target: B1; experiment: SPR, purified scFv captured via FLAG
# Protocol: (§1) A number of the scFv variants presented in TABLE 4 were selected for full characterization of binding kinetics, encompassing a broad range of mutation profiles and binding affinities. Large-scale protein expressions were carried out for each scFv. The expressed scFvs were purified as monomeric proteins and tested for binding against IL-12 and IL-23 by SPR (TABLE 5).
# (§2) Purified scFvs were subjected to full kinetic characterization using a BIAcore T100 biosensor (GE Healthcare). Approximately 10,000 RU of the proprietry FLAG-specific capture molecule was immobilized on a CM5 Series S Sensor chip, using standard amine coupling chemistry in flow cells (FC) 1 and FC2 (or alternatively FC3 and FC4) of the BIAcore T100 Biosensor. The running buffer used was HBS-EP+ (BIAcore) and interactions measured at 30° C. or 35° C. to promote differentiation of scFvs with very similiar kd values. Peak purified FLAG-tagged scFvs (prepared as described in the previous paragraph) were diluted to 10 nM in running buffer, and captured on FC2 at a flow rate of 10 μl/min in order to capture 50 RU of scFv (typically 60 sec was sufficient to capture this level of tagged scFv). After an appropriate stabilization period, the target, IL-12 or IL-23, were passed over FC1 and FC2 at a flow rate of 60 μl/min at concentrations ranging from 81 nM to 0.13 nM (using a five-fold dilution of IL-12) and 81 nM to 1 nM (using a three-fold dilution of IL-23). The contact time for association was 180 sec and dissociation measured for 10 mins for the highest concentration and 300 sec for all other concentrations in the series. The sensorgram data from FC2 was subtracted from FC1 and a buffer only control. The curves were fitted using a 1:1 Langmuir equation to generate the kₐ, kd and KD values.
# human IL-23 [4] = target: B2; experiment: SPR, purified scFv captured via FLAG
# Protocol: as §1, §2
# human IL-23 [5] = target: B2; experiment: SPR, purified scFv captured via FLAG; LOD estimated 1 × 10^-5 s^-1
# Protocol: as §1, §2
# human IL-12 [6] = target: B1; experiment: ELISA
# Procedure, shortened: (§3)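 Cytokine at 1 μg/mL in carbonate buffer pH 9.6 was coated overnight at 4° C onto Maxisorp plates and blocked with 1% BSA in PBS for 1 hour at 25° C. Antibody titrations were bound for 1 hour at 25° C, then detected with goat anti-human IgG or anti-murine immunoglobulin HRP (1:2000, 1 hour). TMB was developed and stopped with 1M HCl. The binding result is absorbance at 450 nm (reference 620 nm).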
# human IL-23 [7] = target: B2; experiment: ELISA
# Procedure, shortened: as §3
binder,measurement,setting,value
"human IL-12p40 (ligand, p40 monomer; also called p40 subunit) IWELKKDVYVVELDWYPDAPGEMVVLTCDTPEEDGITWTLDQSSEVLGSGKTLTIQVKEFGDAGQYTCHKGGEVLSHSLLLLHKKEDGIWSTDILKDQKEPKNKTFLRCEAKNYSGRFTCWWLTTISTDLTFSVKSSRGSSDPQGVTCGAATLSAERVRGDNKEYEYSVECQEDSACPAAEESLPIEVMVDAVHKLKYENYTSSFFIRDIIKPDPPKNLQLKPLKNSRQVEVSWEYPDTWSTPHSYFSLTFCVQVQGKSKREKKDRVFTDKTSATVICRKNASISVRAQDRYYSSSWSEWASVPCS",binding result,[1],binds
B1,binding result,[1],binds
B2,binding result,[1],binds
"scFv CP-A6 (scFv, scFv-80 variant: VH Y59H; not shown: proprietary C-terminal FLAG tag) scFv: QVQLVQSGAEVKKPGASVKVSCKASGYTFTDYYLHWVRQAPGQGLEWMGWIDPENGDTEHAPKFQGRVTMTTDTSTSTAYMELRSLRSDDTAVYYCNANKELRYFDVWGQGTMVTVSSGGGGSGGGGSGGGGSEIVMTQSPATLSVSPGERATLSCRASQSISINLHWYQQKPGQAPRLLIYFASQSISGIPARFSGSGSGTEFTLTISSLQSEDFAVYYCQQSNSFPLTFGGGTKVEIKR",koff,human IL-23 [2],0.00019 s⁻¹
same,Kd,human IL-12 [3],0.061 nM
same,koff,human IL-12 [3],0.00012 s⁻¹
same,kon,human IL-12 [3],2e+06 M⁻¹ s⁻¹
same,kon,human IL-23 [4],310000 M⁻¹ s⁻¹
same,koff,human IL-23 [5],< 1e-05 s⁻¹
"scFv CU-A6 (scFv, scFv-80 variant: VH F29L, T107A; VL S63F; not shown: proprietary C-terminal FLAG tag) scFv: QVQLVQSGAEVKKPGASVKVSCKASGYTLTDYYLHWVRQAPGQGLEWMGWIDPENGDTEYAPKFQGRVTMTTDTSTSTAYMELRSLRSDDTAVYYCNANKELRYFDVWGQGAMVTVSSGGGGSGGGGSGGGGSEIVMTQSPATLSVSPGERATLSCRASQSISINLHWYQQKPGQAPRLLIYFASQSISGIPARFFGSGSGTEFTLTISSLQSEDFAVYYCQQSNSFPLTFGGGTKVEIKR",koff,human IL-23 [2],0.00019 s⁻¹
same,Kd,human IL-12 [3],0.048 nM
same,koff,human IL-12 [3],9.7e-05 s⁻¹
same,kon,human IL-12 [3],2e+06 M⁻¹ s⁻¹
same,kon,human IL-23 [4],300000 M⁻¹ s⁻¹
same,koff,human IL-23 [5],< 1e-05 s⁻¹
"Antibody 176 (antibody, human IgG1, kappa) heavy: not shown light: DIQMTQSPSSVSASVGDRVTITCRASQSISINLHWYQQKPGKAPKLLIYFASQSISGVPSRFSGSGSGTDFSLTINSLQTEDFATYYCQQSNSFPLTFGGGTKVEIKRTVAAPSVFIFPPSDEQLKSGTASVVCLLNNFYPREAKVQWKVDNALQSGNSQESVTEQDSKDSTYSLSSTLTLSKADYEKHKVYACEVTHQGLSSPVTKSFNRGEC",binding result,human IL-12 [6],binds
same,binding result,human IL-23 [7],binds
"Antibody 178 (antibody, human IgG1, kappa, V domains shown) VH: EVQLVQSGAEVKKPGATVKISCKASGYALSDYYLHWVRQAPEKGLEWMGWIDPENGDTEYAPKFQGRVTITADTSTDTGYLELSSLRSEDTAVYYCAANKELRYFDVWGQGTLVTVSS VL: DIQMTQSPSSVSASVGDRVTITCRASQSISINLHWYQQKPGKAPKLLIYFASQSISGVPSRFSGSGSGTDFSLTINSLQTEDFATYYCQQSNSFPLTFGGGTKVEIKR",binding result,human IL-12 [6],binds
same,binding result,human IL-23 [7],binds
